Results on 41 sequences are retold here after the nanobody polyreactivity screen of Harvey et al. (2022).

The series is described as follows: yeast display, Sf9 membrane polyspecificity reagent, FACS + sequencing; frameworks hold sequencing errors. A digest of the protocol:
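Nanobodies from a synthetic yeast display library (Saccharomyces cerevisiae BJ5465), induced 36–48 hours with galactose, were stained 1 hour at 4 °C with 10% biotinylated, detergent-solubilized Sf9 membrane reagent, enriched on streptavidin microbeads, then FACS-sorted. Anti-HA (expression) and streptavidin (reagent binding) fluorescence set low and high (top ~1%) gates. Polyreactivity labels come from the gate of origin. Genes were colony-PCR amplified, MiSeq 2 × 250 sequenced and filtered by CDR length.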
Take “QVQLVESGGGLVQAGGSLRLSCADTGLILVLNAMGCYRQAPGKERELVADITSGGSTYYADSVKGRFTISRDNAKNSVYLQMNSLKPEDTAVYYCATDQGGYYENDYWGQGTKVTVSS”: the “polyreactivity (PSR sort gate)” value was “low polyreactivity”. With “QVQLVESGGGLVQAGGSLRLSCAASGSTLVLNAMGWYRQAPGKERELVAAITISGDTTYYADSVKGRFTISRDNAKNTVYLQMNSLKPEDTAVYYCAAVVSTVDGMEYWGQGTQVTVSS”, the “polyreactivity (PSR sort gate)” value was “low polyreactivity”. The same measure for “QVQLVESGGGLVQAGGSLRLSCAASASIYFPYTMGWYRQAPGKERELVARISLGGGRTYYADSVKGRFTISRDNAKNTVYLQMNSLKPEDTAVYYCAAVYYYGKWSYGYWIYEYWGQGTQVTVSS”: “high polyreactivity”. Then “QVQLVESGGGLVQAGGRLRLSCAASGYIFSYYAMAWYRQAPGKERELVASITSSGGSTYYADSVKGRFTISRDNAKNTVYLQMNSLKPEVTAVSYCAAYSLYGYDYWGQGTQVTVSS”, with “low polyreactivity”.

“QVQLVESGGGLVQAGGSLRLSCAASGLIFGSYVMGWYRQAPGKERELVAAITVRTGTTYYADSVKGRFTISRDNAKNTVYLQMNSLKPEDTAVYYCARRYRPKYGYWGQGTQVTVSS”: the “polyreactivity (PSR sort gate)” value is given as “high polyreactivity”.

“QVQLVESGGGLVQAGGSLRLSCAASGSIFSLNAMGWYRQAPGKERELVAVINRSGTRTYYADSVKGRFTISRDNAKNTVYLQINSLKPEVTAVYYCNAEPSSGSDAQNEYWGQGTQVTVSS”: the “polyreactivity (PSR sort gate)” value was “high polyreactivity”. For the sequence “QVQLVESGGGLVQAGGSLRLSCAASGITFPLYVLGWYRQAPGKDRELVAAISASGGSTYADSVKGRFTISRDNAKNTVYFQMNSLKTEVTAVYYCNADVYVGYEYDYWGQGTQVTVSS”, the “polyreactivity (PSR sort gate)” value is reported as “low polyreactivity”.

Regarding “QVQLVESGGGLVQAGGSLRLSCAASGSIFRYNAMGWYRQAPGKETELVAAISASGGRTHYADSVKGRFTISRDNAKNTVYLQMNSLKPEDTAVYYCAAATYRGTSLYGYWGQGTQVTVSS”, the “polyreactivity (PSR sort gate)” value is given as “high polyreactivity”. The same measure for “QVQLVESGGGLVQAGGSLRLSCAASGFTFDYNAMGWYRQAPGKEREFDAAISTGGSTKYADSVKGRFTISRDNAKNTVYLQMNSLKPEDTAVYYCNKQTTDRGFYDWKWSGFDYWGQGTQVTVSS”: “low polyreactivity”; for “QVQLVESGGGLVQAGGSLRISCAASGSNFIRYAKGWYRQAPGKEMELVAAIRWSAGSTSYADSVKGRFTISRDNAKNTVYLQMNSLKPEDTAVYYCAAGPDYGWRRYDYWGQGTQVTVSS”: “low polyreactivity”; for “QGQLEESCGGLVQAGARLRISCEASGRTFRFYTMGGYRPAPGKEMELVAAISSNTGTTYADSVKGRFTISRDNAKNTVYLQMNSLKQEDTAVFFCAARVRRQYYNRPYYYWGQGTQVTVSS”: “high polyreactivity”. As to “QVQLVESGGGLVQAGGSLRLSCAASGSICRLYAMGWYRPARGKEREFVAGITRRTGSTYYADSVKWRFTISRDNAKNTVYLQMTSLKPEETAVYYCAKRDARATPFGYWGLGTQVTVSS”, the “polyreactivity (PSR sort gate)” value is given as “high polyreactivity”.

In the case of “QVQLVESGGGLVQAGGSLRLSCAASGSTLGYYVMGWYRQAPGKERELVAAITGGGSTDYADSVKGRFTISRDNAKNTVYLQMNSLKPEDTAVDYCAAERTRTGQLFCWGPIYEYWGQGTQVTVSS”, the “polyreactivity (PSR sort gate)” value was “low polyreactivity”. With “QVQLVESGGGLVQAGGSLRLSCAASGSTFFTYAMGWYRQAPGKERELVAAISWSGGTTYYSDSVKWRFTISRDYAKNTDYLQMNSLKPEDTAGYYCASDRDGILKANDYWGQGTQVTVSS”, the “polyreactivity (PSR sort gate)” value is reported as “low polyreactivity”. As to “QVQLVESGGGLVQAGGSLRLSCAASGITFRRYAMGWYRQAPGKERELVAAISRSGGSTRYADSVKGRFTISRDNAKNTVYLLMNSLKPEDTAVYYCAADGVPGRAVDYEYWGQGTQVTVSS”, the “polyreactivity (PSR sort gate)” value is given as “high polyreactivity”. “QVQLVETGGGLVQAGGSLRLSCAASGSTFEYNAMGWYRQAPGKERALVAGISSGGSTYYADSVKGRFTISRDNAKNTVYLQMNSLKPEDTAVYYCATSEASFATWDRYTELDYWGQGTQVTVSS”: the “polyreactivity (PSR sort gate)” value is given as “low polyreactivity”. On to “QVQLVESGGGLVQAGGSLRLSCAPSGFIYHWNAMGWYRQAPGKERELLAAITWRGTNTYYADSVKGRFTISRDNAKNTVYLQMNRLKPEDTAVYYCAARYVTYYGTFDYWGLGTQVTVSS”, for which the “polyreactivity (PSR sort gate)” value was “low polyreactivity”. The same measure for “QVQLVESGGGLVQAGGSLRLSCAASGSIFIWYAMGWYRQAPGKERELVATITSSGSTNYADSVKGRFTISRDNAKNTVYLQMNSLKPEDTAVYYCAKRGPLRHYSWGQGTQVTVSS”: “low polyreactivity”; for “QVQLVESGGGLVQAGGSLRLSCAASGSILSAYDMGLYRKAPGKDRELVAAIHSSGGSTYYADSVKGRFTISRDNAKNTVYLQMNSLKPEDTAVYYCAATSLAGYYQFDYWGQGTQVTVSS”: “low polyreactivity”; for “QVQLVESGGGLVQAGGSLRLSCASSGSIFSYYAKGWYIQAPGKASQLVADISQSGGTTYYADSVKGRFTISRDNAKNTVYLLKNSLKPEETAVYYCAARAPSSFDTQYYYWGEGTQVTVSS”: “low polyreactivity”. With “QVQLVESGGGLVQAGGILRLSCAASGRTFGRNAMGWYRQAPGKERELVARITSGGSTSYADSVKGRFTISRDNAKNTVYLQMNSLKPEDTAVYYCAKGSYGVAYFTHTARYYGGYEYWGQGTQVTVSS”, the “polyreactivity (PSR sort gate)” value is “high polyreactivity”. Then “QVQLVESGGGLVQAGGSLRLSCAASGVTFYAYAMAWYRQAPGKERELVAVISQSGTRTYYADSVKGRFTISRDNAKNTVYLQMNSLKPEDTAVYYCAAPKAQLQPYYYWGQGTQVTVSS”, with “high polyreactivity”; and “QVQLVESGGGLVQAGGSLRLSCAASGLTFKSYAMGWYRQAPVKERELVAGISWSGDSTYYADSVKGRFTISRDNAKNTVYLQMNSLKPEDTAVYYCAAEYSYEYDYWGQGTQVTVSS”, with “high polyreactivity”; and “QVQLVESGGGLVQAGGSLRLSCAASGRTFYDYTMGRYRQAPGKERELVAAISQRGGSTYYADSVKGRFTISRDNAKNTVYLQMNSLKPEDTAVYYCAARTSYSGNKYYYWGQGTQVTVSS”, with “high polyreactivity”.

As for “QVQLVESGGGLVQAGGSLRLSCAASGRIFTHYAMGWYRQAPGKERELVAAISRTGGTTNYADSVKGRFTISRDNAKNTVYLQMNSLKPEDTAVYYCAAVGKGAKDYFKYYSLGQGTQVTVSS”, the “polyreactivity (PSR sort gate)” value is listed as “high polyreactivity”.

Turning to “QVQLVESGGGLVQAGGSLRLSCAAYGNAMGWYRQAPGKERELVASINRSGGRTYYADSVKGRFTISRDNAKNTVYLQMNSLKPEDTAVYYCAARPHYDSDYWGQGTQVTVSS”, the “polyreactivity (PSR sort gate)” value is “low polyreactivity”. The same measure for “QVQLVESGGGLVQAGGSLRLISAASGSTFPPYSMGWYSQAPGKEWEVVADITRRGASTYYADSVKVRFTISRDNAKNTVYLQMNSLKPEDTAVYYCAARYYDQYYSGFDYWGQGTQVTVSS”: “high polyreactivity”; for “QVLLQESGGGLVQAGVSLRLCCAASGYISGDQFMGWYRQAPGKEREFVAGIGNGTNTNYADSVKGRFTTSRDNAKNTVYLQMNSLKQEDTAVYYCAADPSDGSTLAYWGHGTQVTVSS”: “high polyreactivity”; for “QVQLVESGGGLVQSGGSLRLSCAASGITFFEYAMGWYRQAPGKERELVAVITSGGSTNYADSVKGRFTISRDNAKNTVYLQMNSLKPEDTAVYYCNALVVKYRWWYDYYYWGQGTQVTVSS”: “low polyreactivity”. For “QVQLVESGGGLVQAGGSLRLSCAASGRIFSRYAMGWYRQAPGKERELVAAISWSGGSTYYADSVKGRFTISRDNAKNTVYLQINSLKPEDTAVYYCAAKRQYTEYNYWGQGTQVTVSS”, the “polyreactivity (PSR sort gate)” value is reported as “high polyreactivity”. Take “QVQLVESGGGLVQAGGSLRLSCAASGSTFTNNGMGWYRQAPGKERELVATISWDGDSTYYADSVKGRFTISRDNAKNTVYLQMISQKPEDTAVYYCAADEWGSDSALNFEYWGQGTQVTVSS”: the “polyreactivity (PSR sort gate)” value is on record as “low polyreactivity”.

In the case of “QVQLVESGGGLVQAGGSLRLSCAASGRIFYIYAMGWYRQAPGKERELVATISVSGGRTYYADSVKGRFTISRDNAKNTVYLQMNSLKPEDTAVYYCAKECRFNIHKWYDYWGQGTQVTVSS”, the “polyreactivity (PSR sort gate)” value was “low polyreactivity”.

Turning to “QVQLVESGGGLVQAGGSLRLSCAASGFTFGYYAMGWYRQARGKERELVAAISSRGSGTYYADSVKGRFTISRDNAKNTVYLQMNSLKPEDTAVYYCARPAALLGYWGQGTQVTVSS”, the “polyreactivity (PSR sort gate)” value is “low polyreactivity”. Then “QVQLVESGGGLVQAGGSLRLSCAASGFTFRRYAMGWYRQAPGKERELVATITIGGSTSYADSVKGRFTISRDNAKNTVYLQMNSLKPEDTAVYYCAAVANPNRYRFDYWGQGSQVTVSS”, with “high polyreactivity”; and “QVQLVESGGGLVQAGGSLRLSCAASGIIFDDNTMGWYRQAPGKERELVAAISSSGGSTYYADSVKGRFTISRDNAKNTVYLQMNSLKPEDTAVYYCAAAVYYTYPYIVYRNYPEFDYWGQGTQVTVSS”, with “low polyreactivity”; and “QVQLVESGGGLVQAGGSLRLSCAASGSIFRQYAMGWYRQAPGKERELVATISRSGGSTYYADSVKGRFTISRDNAKNTVYLQMNSLKPEDTAVYYCAASRYNKSYREWWVGSWGQGTQVTVSS”, with “high polyreactivity”.

On to “QVQLEESGGGLVQAGGSLRLTCAASGLTSRNYAMGWYRHAPRKARELVAAISKSGSRTYYADSVKGRFTISRDNAKNTVYLQMNSLKPEDTAVYYCATDYLDGTSYDYWGQGTQVTVSS”, for which the “polyreactivity (PSR sort gate)” value is “high polyreactivity”.

As for “QVQLVESGGGLVQAGGSLRLSCAASGFIFRWYAMGWSRQAPGKERELVAAISRSGDSTYYADSVKGRFTISRDNAKNTVYLQMNSLKPEDSAVYYCAADDRYYTYGYDYWGQGTQVTVSS”, the “polyreactivity (PSR sort gate)” value is listed as “low polyreactivity”. Then “QDQLVESGGGLVQAGGSLRLSCAASVIIFEYYTMGWYRQAPGKERELVASITYDGDSTYYADSVKRRFTISRDNAKKTVYLQMNSQTPEDTAFYSCAADYYYVYSSYGHYYWGQGTQVTVSS”, with “low polyreactivity”.

In the case of “QVQLVESGGGLVQAGGSLRLSCAASGLIFVINAMGWYRQAPGKERELVATISSRVSTNYADSVKGRFTISRDNAKNTVYLQMNSLKPEDTAVYYCNKGQTVSRGYRLYERFDYWGQGTQVTVSS”, the “polyreactivity (PSR sort gate)” value was “low polyreactivity”. Then “QVQLVESGGGLVQAGGSLRLSCAASGGTFPYYAMGWYRQAPGKERELVAAISSSGGRTYYADSVKGRFTISRDNAKNTVYLQMNSLKPEDTAVYYCAKDTYGFAANRPAGDGYWGQGTQVTVSS”, with “high polyreactivity”.
